Measured values as given in patent publication US6534300.

Assays:
[1] = target: porcine uteroferrin (UniProt P09889)
[2] = tested on: RNAse B
[3] = tested on: cathepsin D

UniProt P09889, sequence (P09889 22-340): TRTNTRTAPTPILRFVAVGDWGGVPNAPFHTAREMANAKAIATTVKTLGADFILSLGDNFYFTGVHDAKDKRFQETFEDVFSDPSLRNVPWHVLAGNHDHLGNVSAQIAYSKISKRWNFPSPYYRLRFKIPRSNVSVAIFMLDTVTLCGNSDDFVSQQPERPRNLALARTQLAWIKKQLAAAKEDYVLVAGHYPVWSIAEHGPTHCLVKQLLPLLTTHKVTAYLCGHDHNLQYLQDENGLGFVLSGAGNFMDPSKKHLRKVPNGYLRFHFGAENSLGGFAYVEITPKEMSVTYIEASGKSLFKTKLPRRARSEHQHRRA

bovine UDP-N-acetylglucosamine: lysosomal enzyme N-Acetylglucosamine-1-phosphotransferase
Km as acceptor for transfer of GlcNAc-1-P [1]: Kms below 20 µM | Km as acceptor for transfer of GlcNAc-1-P [2]: the Km was not reached at the solubility limit of the protein (at 600 µM) | Km as acceptor for transfer of GlcNAc-1-P [3]: Kms below 20 µM
